{"source": "patent US20140087995A1", "about": "(published 2014)", "key": {"rat calcitonin receptor [1]": {"molecular_target": "T1, rat calcitonin receptor (rat, UniProt P32214 25-516)", "T1 construct": "whole, on cells; membranes of transiently transfected BHK tk'ts 13 cells (Assay VIII); also called rCTR; rat calcitonin (a) receptor", "T1 sequence (looked up)": "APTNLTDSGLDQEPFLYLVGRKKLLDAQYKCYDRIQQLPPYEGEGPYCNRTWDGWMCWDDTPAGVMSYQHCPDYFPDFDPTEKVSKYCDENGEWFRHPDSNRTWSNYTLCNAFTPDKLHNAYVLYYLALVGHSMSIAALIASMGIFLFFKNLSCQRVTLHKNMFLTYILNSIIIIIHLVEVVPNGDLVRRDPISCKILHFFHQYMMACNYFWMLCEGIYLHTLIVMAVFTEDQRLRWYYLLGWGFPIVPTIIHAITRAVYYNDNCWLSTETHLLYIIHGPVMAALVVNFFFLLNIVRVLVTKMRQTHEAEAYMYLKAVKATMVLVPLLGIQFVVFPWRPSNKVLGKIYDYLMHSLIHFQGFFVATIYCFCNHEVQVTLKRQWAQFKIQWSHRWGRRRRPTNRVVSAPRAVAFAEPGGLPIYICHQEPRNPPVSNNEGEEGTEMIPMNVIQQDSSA", "experiment": "IC50 on rat calcitonin receptor divided by IC50 on rat amylin receptor (SPA competition)"}, "rat calcitonin receptor [2]": {"molecular_target": "T1, rat calcitonin receptor", "experiment": "SPA competition with 125I-calcitonin, membranes of BHK cells with rat calcitonin receptor (Assay VIII)"}, "[3]": {"molecular_target": "T2, rat amylin receptor (rat calcitonin receptor + rat RAMP 3) (rat, UniProt P32214 25-516; Q9JJ73 23-147)", "T2 construct": "whole, on cells; membranes of transiently transfected BHK tk'ts 13 cells (Assay VI); also called rAmylin-R; rat amylin 3(a) receptor", "T2 sequence (looked up) 1": "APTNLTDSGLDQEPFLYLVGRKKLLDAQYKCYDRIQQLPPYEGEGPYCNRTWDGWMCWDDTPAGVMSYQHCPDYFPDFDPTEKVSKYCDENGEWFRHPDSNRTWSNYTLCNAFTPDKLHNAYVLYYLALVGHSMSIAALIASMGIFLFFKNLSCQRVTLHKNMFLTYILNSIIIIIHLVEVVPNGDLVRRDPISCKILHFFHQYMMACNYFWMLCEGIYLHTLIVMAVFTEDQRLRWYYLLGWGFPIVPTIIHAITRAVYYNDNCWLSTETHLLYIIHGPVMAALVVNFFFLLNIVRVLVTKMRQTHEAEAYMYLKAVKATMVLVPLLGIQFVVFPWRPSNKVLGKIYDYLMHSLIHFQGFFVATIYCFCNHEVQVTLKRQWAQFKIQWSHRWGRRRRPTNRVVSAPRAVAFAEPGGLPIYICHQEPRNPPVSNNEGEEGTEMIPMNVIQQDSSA", "T2 sequence (looked up) 2": "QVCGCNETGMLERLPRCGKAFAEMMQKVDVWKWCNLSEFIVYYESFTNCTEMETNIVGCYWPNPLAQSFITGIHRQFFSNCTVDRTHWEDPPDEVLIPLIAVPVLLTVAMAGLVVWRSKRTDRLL", "experiment": "SPA competition with 125I-rat amylin, membranes of BHK cells with rat calcitonin receptor + rat RAMP3 (Assay VI)"}, "[4]": {"molecular_target": "T3, human calcitonin receptor (human, UniProt P30988 25-474)", "T3 construct": "whole, on cells; membranes of stably transfected BHK cells (Assay VII); also called hCTR; hCT", "T3 sequence (looked up)": "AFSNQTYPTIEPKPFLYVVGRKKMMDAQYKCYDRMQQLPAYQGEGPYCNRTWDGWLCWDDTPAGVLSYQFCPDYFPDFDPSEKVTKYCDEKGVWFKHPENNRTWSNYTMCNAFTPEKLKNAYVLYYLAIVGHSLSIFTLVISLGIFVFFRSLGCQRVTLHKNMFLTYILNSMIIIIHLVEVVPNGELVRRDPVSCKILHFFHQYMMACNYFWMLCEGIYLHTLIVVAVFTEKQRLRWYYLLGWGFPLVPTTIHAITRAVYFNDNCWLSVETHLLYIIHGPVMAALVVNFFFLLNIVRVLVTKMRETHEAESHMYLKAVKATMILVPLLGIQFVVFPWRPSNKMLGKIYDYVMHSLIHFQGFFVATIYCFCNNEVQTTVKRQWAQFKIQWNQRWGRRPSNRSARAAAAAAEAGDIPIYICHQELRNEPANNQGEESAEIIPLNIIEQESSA", "experiment": "IC50 on human calcitonin receptor divided by IC50 on human amylin receptor (SPA competition)", "protocol": "The resulting pellet was resuspended, homogenized and centrifuged (20.000 rpm, 15 min) in a buffer containing 20 mM Na-HEPES and 0.1 mM EDTA (pH 7.4, buffer 2). The resulting pellet was resuspended in buffer 2 and protein concentration was measured (BCA protein Assay, Pierce). The homogenate was kept cold during the whole procedure. The membranes were kept at −80° C. until use. The assay was performed in a 384 well Optiplate (PerkinElmer) in a total volume of 40 ul. Membranes were mixed with SPA beads. Final concentration of membranes 35 ng/μL final and SPA beads was 0.05 mg/well. Test-compounds were dissolved in DMSO and further diluted in assay buffer (50 mM Hepes, pH 7.4, 1 mM CaCl2, 5 mM MgCl₂, 0.1% OA and 0.02% Tween20). […] The final mixture was incubated with shaking at 400 rpm for 120 min at 25° C. prior to centrifugation (1500 rpm, 10 min). Samples were analyzed on TopCounter™ (Packard). The IC₅₀ was calculated using (one site binding competition analysis) GraphPad Prism5 as a measure of receptor affinity.\nMembranes were prepared in the following way; the cells were rinsed with PBS and incubated with Versene for approximately 5 min before harvesting. The cells were flushed with PBS and the cell-suspension was centrifuged for 5 min at 1000 rpm. Cells were homogenized (Ultrathurrax) in a buffer containing 20 mM Na-HEPES and 10 mM EDTA (pH 7.4) and centrifuged at 20.000 rpm for 15 min. The resulting pellet was resuspended, homogenized and centrifuged (20.000 rpm, 15 min) in a buffer containing 20 mM Na-HEPES and 0.1 mM EDTA (pH 7.4, buffer 2). The resulting pellet was resuspended in buffer 2 and protein concentration was measured (BCA protein Assay, Pierce). The homogenate was kept cold during the whole procedure. The membranes were kept at −80° C. until use. Assay was performed in a 384 well Optiplate (PerkinElmer) in a total volume of 40 ul. Membranes were mixed with SPA beads."}}, "note": "Numbered stars: 1 amine (or outer) side, 2 acyl side, 3 side chain; on linkers, the order of the positions; unused ones are H or OH. Bridge positions count the residues as written; N and C are the ends. Side chains are listed from the residue outwards. Ends that are not written are not given here. * marks the point of attachment. C20 diacid = O=C(O)CCCCCCCCCCCCCCCCCCC(=O)*; γGlu = O=C(O)[C@H](CCC(=O)[*:2])N[*:1]; AEEA = NCCOCCOCC(=O)O"}
{"binder": "KCNTATCATQRLANFLRHSSPNFGAIPSSTNVGSNTY (C20 diacid-gGlu on the alpha amino group of the N-terminal residue (Lys 1); disulfide bridge between the two Cys residues; C-terminal amide, analogue of human amylin; also called compound 21)", "note": "[N^α1-[(4S)-4-carboxy-4-(19-carboxynonadecanoylamino)butanoyl]-[Arg17,Pro21,Pro27]-h-amylin]", "values": [{"measurement": "Ratio rCT/rAmylin binding", "setting": "rat calcitonin receptor [1]", "result": 18.8}, {"measurement": "IC50", "setting": "rat calcitonin receptor [2]", "result": 27.9, "unit": "nM"}, {"measurement": "IC50", "setting": "[3]", "result": 1.48, "unit": "nM"}, {"measurement": "Ratio hCT/hAmylin binding", "setting": "[4]", "result": 24.4}]}
{"binder": "K([AEEA-AEEA-γGlu-C20 diacid])CNTATCATQRLANFLRHSSPNFGAIPSSTNVGSETY-NH2 (disulfide 2-7 (inferred), analogue of human amylin; also called compound 25)", "values": [{"measurement": "Ratio rCT/rAmylin binding", "setting": "rat calcitonin receptor [1]", "result": 37.7}, {"measurement": "IC50", "setting": "rat calcitonin receptor [2]", "result": 131, "unit": "nM"}, {"measurement": "IC50", "setting": "[3]", "result": 3.48, "unit": "nM"}, {"measurement": "Ratio hCT/hAmylin binding", "setting": "[4]", "result": 56.5}]}
{"binder": "KCNTATCATQRLANFLRHSSPNFGAIPSSTNVGSKTY (C20 diacid-gGlu on the alpha amino group of the N-terminal residue (Lys 1); disulfide bridge between the two Cys residues; C-terminal amide, analogue of human amylin; also called compound 34)", "note": "[N^α1-[(4S)-4-carboxy-4-(19-carboxynonadecanoylamino)butanoyl]-[Arg17,Pro21,Pro27,Lys35]-h-amylin]", "values": [{"measurement": "Ratio rCT/rAmylin binding", "setting": "rat calcitonin receptor [1]", "result": 52}, {"measurement": "IC50", "setting": "rat calcitonin receptor [2]", "result": 89.2, "unit": "nM"}, {"measurement": "IC50", "setting": "[3]", "result": 1.72, "unit": "nM"}, {"measurement": "Ratio hCT/hAmylin binding", "setting": "[4]", "result": 64.4}]}
{"binder": "{C20 diacid-γGlu}-KCNTATCATQRLANFLRHSSPNFGAIPSSTNVGPETY-NH2 (disulfide 2-7 (inferred), analogue of human amylin; also called compound 29)", "values": [{"measurement": "Ratio rCT/rAmylin binding", "setting": "rat calcitonin receptor [1]", "result": 67}, {"measurement": "IC50", "setting": "rat calcitonin receptor [2]", "result": 21.6, "unit": "nM"}, {"measurement": "IC50", "setting": "[3]", "result": 0.322, "unit": "nM"}, {"measurement": "Ratio hCT/hAmylin binding", "setting": "[4]", "result": 13.9}]}
{"binder": "{C20 diacid-γGlu}-KCNTATCATQRLAHFLRHSSPNFGAIPSSTNVGSETY-NH2 (disulfide 2-7 (inferred), analogue of human amylin; also called compound 30)", "values": [{"measurement": "Ratio rCT/rAmylin binding", "setting": "rat calcitonin receptor [1]", "result": 36.1}, {"measurement": "IC50", "setting": "rat calcitonin receptor [2]", "result": 114, "unit": "nM"}, {"measurement": "IC50", "setting": "[3]", "result": 3.14, "unit": "nM"}, {"measurement": "Ratio hCT/hAmylin binding", "setting": "[4]", "result": 23.6}]}
{"binder": "KCNTATCATQRLANFLRHSSPNFGAIPSSTNVGRNTY (C20 diacid-gGlu on the alpha amino group of the N-terminal residue (Lys 1); disulfide bridge between the two Cys residues; C-terminal amide, analogue of human amylin; also called compound 39)", "note": "[N^α1-[(4S)-4-carboxy-4-(19-carboxynonadecanoylamino)butanoyl]-[Arg17,Pro21,Pro27,Arg34]-h-amylin]", "values": [{"measurement": "Ratio rCT/rAmylin binding", "setting": "rat calcitonin receptor [1]", "result": 54.5}, {"measurement": "IC50", "setting": "rat calcitonin receptor [2]", "result": 96.4, "unit": "nM"}, {"measurement": "IC50", "setting": "[3]", "result": 1.77, "unit": "nM"}, {"measurement": "Ratio hCT/hAmylin binding", "setting": "[4]", "result": 29}]}
{"binder": "{C20 diacid-γGlu}-KCNTATCATQRLAEFLRHSSPNFGAIPSSTNVGSETY-NH2 (disulfide 2-7 (inferred), analogue of human amylin; the name is printed with N^α1 twice; also called compound 22)", "values": [{"measurement": "Ratio rCT/rAmylin binding", "setting": "rat calcitonin receptor [1]", "result": 28.5}, {"measurement": "IC50", "setting": "rat calcitonin receptor [2]", "result": 62.5, "unit": "nM"}, {"measurement": "IC50", "setting": "[3]", "result": 2.19, "unit": "nM"}, {"measurement": "Ratio hCT/hAmylin binding", "setting": "[4]", "result": 12.3}]}
{"binder": "{C20 diacid-γGlu}-KCNTATCATQRLAEFLRHSSPNFGAIPSSTNVGPNTY-NH2 (disulfide 2-7 (inferred), analogue of human amylin; also called compound 32)", "values": [{"measurement": "Ratio rCT/rAmylin binding", "setting": "rat calcitonin receptor [1]", "result": 34}, {"measurement": "IC50", "setting": "rat calcitonin receptor [2]", "result": 5.98, "unit": "nM"}, {"measurement": "IC50", "setting": "[3]", "result": 0.176, "unit": "nM"}, {"measurement": "Ratio hCT/hAmylin binding", "setting": "[4]", "result": 10.9}]}
{"binder": "{C20 diacid-γGlu}-KCNTATCATQRLANFLRHSSPNFGAIPSSTPVGSETY-NH2 (disulfide 2-7 (inferred), analogue of human amylin; also called compound 28)", "values": [{"measurement": "Ratio rCT/rAmylin binding", "setting": "rat calcitonin receptor [1]", "result": 44.9}, {"measurement": "IC50", "setting": "rat calcitonin receptor [2]", "result": 54.9, "unit": "nM"}, {"measurement": "IC50", "setting": "[3]", "result": 1.22, "unit": "nM"}, {"measurement": "Ratio hCT/hAmylin binding", "setting": "[4]", "result": 20.5}]}
